Assay results published in US20220073641A1, “FUSION PROTEIN OF ANTIBODY THAT RECOGNIZES CANCER CELLS AND MUTANT STREPTAVIDIN” (The University of Tokyo, priority 2018, published 2022).
One block for each molecule: values may come before it.

Assays:
MKN45 cells [1] = test: In vivo cytotoxicity test in MKN45 xenograft mouse models with 690 nm light; parameters: species or system nude mice; conditions: 100 μg complex of CEA-V2122 and Compound 1 via caudal vein; 690 nm 230 J/cm^2 at 6 and 24 hours; pathology on 7th day; FIG. 11, 12
Excerpt: MKN45 cells were subcutaneously transplanted into nude mice to produce xenograft mouse models. That is, 4-week-old female nude mice were purchased, and the mice were then acclimated for 1 week. Thereafter, the MKN45 cells were transplanted in a cell count of 2×10^5 cells per mouse into the subcutis thereof. […] Using an LED light source emitting a light having a wavelength of 690 nm (USHIO OPTO SEMICONDUCTORS, INC., LD690D-66-60-550.), T-Cube LED Driver (THORLABS, NC0713145), and T-CUBE 15V POWER SUPPLY (THORLABS, TPS001), 6 hours after the administration, the mice were irradiated with the light having a wavelength of 690 nm, so that the irradiation energy became 230 J/cm^2. Twenty-four hours after administration of the complex, the mice were irradiated again with the light having a wavelength of 690 nm, so that the irradiation energy became 230 J/cm^2. Individual mice were euthanized on the 7th day after administration of the complex and were then excised, and the tumor portions were subjected to pathological analysis. The specific method is as follows. That is, the subcutaneous tumor of each mouse and the peripheral tissues thereof were excised as a mass, and the mass was then immersed in a 4% paraformaldehyde solution (Wako Pure Chemical Industries, Ltd., 163-20145) at mom temperature overnight, so that the tissues were fixed. […]

MKN45 cells [2] = test: Cytotoxicity test using CEA-V2122 and photoactivatable compound-labeled modified biotins with 690 nm light; conditions: complex with CEA-V2122 (molar ratio 1:2), 0.039-10 μg/mL, 690±10 nm 100 J/cm^2, 48 hours, Cell Counting Kit-8; FIG. 8
Description: Specifically, MKN45 cells were seeded on a 96-well plate for cell culture, so that the cell count became 5×10^3 cells/well and the amount of the culture solution became 50 μL/well, and thereafter, the cells were cultured overnight. […] Regarding serial dilutions, 20 μg/mL was set to be an initial concentration, from 4-fold serial dilutions (5.0 μg/mL, 1.25 μg/mL, 0.312 μg/mL, and 0.078 μg/mL), 5 complex serial dilution solutions were prepared. Besides, a medium alone that contained no complex was used as a zero control.
Such complex serial dilution solutions were each added in an amount of 50 μL/well to the cells cultured overnight, so that the final concentrations became 10 μg/mL, 2.5 μg/mL, 0.625 μg/mL, 0.156 μg/mL, and 0.039 μg/mL One hour and two hours after addition of the complex, the cells were irradiated with a light, using LED emitting a light having a wavelength of 690±10 nm, so that the irradiation energy became 100 J/cm^2. […] Each condition was set to be n=3. The dosage and administration were determined in accordance with the instruction manuals included with the kit, and after addition of the reagent, the mixture was incubated for 1.5 hours at 37° C., in a CO2 incubator. Thereafter, the absorbance at 450 nm was measured, and the mean value was then calculated, followed by background collection. […]

[3] = biological target: T1, Recombinant Human CEACAM-5/CD66e Protein, CF (R & D SYSTEMS) (human, UniProt P06731 35-685); test: SPR (Biacore T200), CEACAM5 immobilized on CM5, CEA-V2122 as analyte, single-cycle kinetics, bivalent analysis fit
T1 construct: Purchased protein, amine-coupled to a CM5 chip; also called antigen CEACAM5
T1 sequence (looked up): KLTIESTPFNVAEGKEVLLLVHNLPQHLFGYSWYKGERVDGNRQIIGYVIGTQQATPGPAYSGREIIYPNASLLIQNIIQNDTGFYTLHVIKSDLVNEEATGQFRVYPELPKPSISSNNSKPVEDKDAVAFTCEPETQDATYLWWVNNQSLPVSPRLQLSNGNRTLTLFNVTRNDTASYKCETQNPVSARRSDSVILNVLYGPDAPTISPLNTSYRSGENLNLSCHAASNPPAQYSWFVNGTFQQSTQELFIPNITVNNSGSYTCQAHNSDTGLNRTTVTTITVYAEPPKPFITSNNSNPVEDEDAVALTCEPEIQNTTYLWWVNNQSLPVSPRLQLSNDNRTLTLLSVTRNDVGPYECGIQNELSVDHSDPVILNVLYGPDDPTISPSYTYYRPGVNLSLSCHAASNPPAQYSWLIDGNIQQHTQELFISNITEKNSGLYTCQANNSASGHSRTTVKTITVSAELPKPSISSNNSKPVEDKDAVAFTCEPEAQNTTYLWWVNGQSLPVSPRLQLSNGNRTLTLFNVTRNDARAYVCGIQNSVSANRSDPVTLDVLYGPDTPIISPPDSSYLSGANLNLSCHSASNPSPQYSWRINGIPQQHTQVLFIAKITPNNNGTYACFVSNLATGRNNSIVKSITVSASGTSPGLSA

[4] = SPR (Biacore T200) interaction between immobilized CEA-V2122 and a modified biotin; format: binding
Description: Furthermore, the interaction between CEA-V2122 and a modified biotin was also analyzed using Biacore T200. The modified biotin was specifically the title compound 14 described in Example 1 of International Publication WO2018/07239. In addition, the analysis method was specifically as follows. That is, an amine-coupling kit was used, a target value was set to be 5000 RU, and the purified CEA-V2122 was immobilized on Sensor Chip CM5.

CEACAM5 [5] = biological target: T2, CEACAM5 (Homo sapiens, UniProt P06731); test: SPR (Biacore T200) affinity of CEA-V2122 for immobilized antigen CEACAM5; format: binding; parameters: purchased R & D SYSTEMS
T2 sequence (P06731 35-676): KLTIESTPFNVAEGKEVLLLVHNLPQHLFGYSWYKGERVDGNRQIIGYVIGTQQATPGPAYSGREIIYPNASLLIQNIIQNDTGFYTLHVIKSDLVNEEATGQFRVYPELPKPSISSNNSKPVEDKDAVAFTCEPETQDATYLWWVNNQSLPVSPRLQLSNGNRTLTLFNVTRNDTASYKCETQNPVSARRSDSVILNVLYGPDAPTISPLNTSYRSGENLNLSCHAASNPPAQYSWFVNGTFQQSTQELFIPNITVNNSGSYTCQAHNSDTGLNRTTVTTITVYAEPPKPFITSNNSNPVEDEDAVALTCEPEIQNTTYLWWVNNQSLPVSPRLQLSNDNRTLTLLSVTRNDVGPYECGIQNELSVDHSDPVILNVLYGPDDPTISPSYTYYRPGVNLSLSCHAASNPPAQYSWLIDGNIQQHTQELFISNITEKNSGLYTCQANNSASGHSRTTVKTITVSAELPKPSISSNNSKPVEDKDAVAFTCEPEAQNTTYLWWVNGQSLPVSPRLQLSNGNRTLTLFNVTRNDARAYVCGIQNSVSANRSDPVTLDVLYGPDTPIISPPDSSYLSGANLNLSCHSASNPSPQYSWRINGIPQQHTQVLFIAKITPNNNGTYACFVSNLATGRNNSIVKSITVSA

CEACAM5 [6] = biological target: T2, CEACAM5; test: Cell staining of CEACAM5-expressing cell line using FITC-labeled CEA-V2122; format: cell-based
Description: In order to stain a CEACAM5 expression-positive cancer cell line, FTC labeling was carried out on the cell line, using 100 μg of a purified CEA-V2122 protein. Specifically, labeling was carried out using Fluorescein Labeling Kit—NH2 (DOJINDO LABORATORIES) in accordance with the dosage and administration described in the operating manual included with the kit, and the obtained product was defined to be CEA-V2122-FITC. Specific staining of the CEACAM5 expression-positive cancer cell line is as follows. That is, CEACAM5-positive human stomach cancer-derived MKN-45 cells and CEACAM5-negative human colon cancer-derived DLD1 cells were each seeded on a CELLSTAR, μClear, 96-well plate (Greiner) to a cell density of 2.0×10^4 cells/well, and thereafter, the cells were cultured overnight. Subsequently, a culture solution containing 20 nM CEA-V2122-FITC and 1 μM Hoechist was added to the 96-well plate to a concentration of 100 μL/well, and the obtained mixture was then reacted at 4° C. for 30 minutes. Thereafter, each image was taken using In Cell Analyzer 6000 (GE Healthcare Life Sciences).

[7] = single-cycle kinetics, bivalent analysis mode, CEA-V2122 immobilized, modified biotin analyte
[8] = single-cycle kinetics, bivalent analysis mode, CEACAM5 immobilized, CEA-V2122 analyte

Molecule: C[Si](C)(CCC[N+](CCCS(=O)(=O)[O-])(CCCS(=O)(=O)O)CCCS(=O)(=O)O)O[Si]1(O[Si](C)(C)CCC[N+](CCCS(=O)(=O)[O-])(CCCS(=O)(=O)O)CCCS(=O)(=O)O)N2/C3=N\C4=NC(=N\c5c6c(OCCCOC(=O)NCCCCCC(=O)NCCOCCOCCN(CC(=O)NCCCCNC(=O)CCCC[C@@H]7SC[C@@H]8NC(=N)N[C@@H]87)CC(=O)NCCCCNC(=O)CCCC[C@@H]7SC[C@@H]8NC(=N)N[C@@H]87)cccc6c(n51)/N=C1\N=C(NC2c2ccccc23)c2ccccc21)/c1ccccc14 (stereo partly drawn) [Compound 1]
- tumor necrosis (MKN45 cells [1]): necrosis can be induced to the tumor of the xenograft mouse model
- cytotoxicity (MKN45 cells [2]): exhibits cytotoxicity in a concentration-dependent manner

- Kd [3]: 1.08 pM
B1: CEA-V2122 (scFv)
chain: QVKLEQSGAEVVKPGASVKLSCKASGFNIKDSYMHWLRQGPGQRLEWIGWIDPENGDTEYAPKFQGKATFTTDTSANTAYLGLSSLRPEDTAVYYCNEGTPTGPYYFDYWGQGTLVTVSSGGGGSGGGGSGGGGSENVLTQSPSSMSVSVGDRVNIACSASSSVPYMHWLQQKPGKSPKLLIYLTSNLASGVPSRFSGSGSGTDYSLTISSVQPEDAATYYCQQRSSYPLTFGGGTKLEIKGGGGSGGGGAEAGITGTWSDQLGDTFIVTAGADGALTGTYENAVGGAESRYVLTGRYDSAPATDGSGTALGWTVAWKNNSKNAHSATTWSGQYVGGADAKINTQWLLTSGTTNANAWKSTLVGHDTFTKVKPSAASHHHHHH
notes: also called CEA-Cupid; scFv-V2122

- binding to a modified biotin ([4]; from the KD value in the sensorgram, FIG. 4): strongly binds to a modified biotin
- KD=kd1/ka1 (CEACAM5 [5]; bivalent analysis mode): 1.078E−12
- binding to CEACAM5 (CEACAM5 [5]; from the KD value in the sensorgram, FIG. 3): strongly binds to CEACAM5
- ka1 (CEACAM5 [5]; [8]): 3.208E+5
- kd1 (CEACAM5 [5]; [8]): 3.461E−7
B2: CEA-V2122: scFv-type anti-CEACAM5 antibody bound with mutant streptavidin V2122 via linker GGGGSGGGG; SEQ ID NO: 3 (protein)
chain: B1 chain
- ka1 [4, 7]: 3.792E+4
- kd1 [4, 7]: 4.424E−6

B3: CEA-V2122-FITC: purified CEA-V2122 protein labeled with Fluorescein Labeling Kit—NH2 (protein)
chain: B1 chain
- recognition of CEACAM5 on cells (CEACAM5 [6]; 20 nM, 4° C., 30 minutes, CEACAM5-positive MKN-45 vs CEACAM5-negative DLD1 cells, FIG. 5): specifically recognizes CEACAM5 on the surface of the cell membrane
- localisation of CEACAM5 after binding (CEACAM5 [6]; MKN45 cells, time series, FIG. 6): the CEACAM5 stays on the surface of the cell membrane
